Test results from US20220112288A1 (published 2022).
Blank lines part the entries; values can stand above or below the binder they belong to.

Molecular target: T1, Recombinant human CD4 (R&D Systems, Cat. 10327-CD) (human, UniProt P01730 26-390, limits assumed)
T1 construct: Soluble analyte in the Octet assay
Assay: BLI Octet, mAb on anti-mouse Fc sensor, CD4 100/50/25 nM, 1:1 global fit;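 further: antibodies loaded at 10 µg/mL, an unrelated mouse-derived antibody served as internal reference control, association and dissociation phases fitted after Savitzky-Golay smoothing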
Procedure: A three-point, 1:1 serial dilution of human and rhesus CD4 proteins were prepared using kinetics buffer as diluent. […] 10 mM Glycine pH 1.7, and kinetics buffer were used to regenerate the AMC biosensors. […] An irrelevant antibody derived from the Alivamab mouse was included in the assay as an internal reference control.
After completion of the kinetic characterization assays, data was analyzed in Forte Bio analysis software v11. The Y-axis was aligned to the final 5 seconds of the baseline step, with inter-step alignment to the dissociation step. Savitzky-Golay Filtering was used to smooth the data. Kinetic curves were fit to both association and dissociation steps using a 1:1 stoichiometry model.

Kd: 130 nM | Response: 0.12 | koff: 0.0048 s⁻¹ | kon: 37000 M⁻¹ s⁻¹
B1: 75110_01J09A (antibody, V domains shown)
VH: EVQLVESGGGLVQPGGSLRLSCVASGFTFSSYWMSWVRQAPGKGLEWVANTKEDGSDKYYVDSVKGRFTICRDNAKNSLYLQMNSLRAEDTAVYYCAREGGQWLALDYWGQGTLVTVSS
VL: DIQMTQSPSSVSASVGDRVTINCRASQGISSWLAWYQQKPGKAPNLLIFGASSLQSGVPSRFSGSGFGTDFSLTITTLQPEDFATYHCQQANSFPWTFGQGTKVEIK
notes: Tested as antibody purified from AlivaMab Mouse hybridoma supernatant (captured by anti-mouse IgG Fc)

Kd: 2.2 nM | Response: 0.11 | koff: 0.00061 s⁻¹ | kon: 280000 M⁻¹ s⁻¹
B4: 75110_02E08A (antibody, V domains shown)
VH: QVQLQESGPGLVKPSETLSLTCTVSGGSISTYYWTWIRQPAGKGLEWIGRVYTSGDTNYNPSLKSRVAMSLDTSKNQFSLKLSSVTAADTAVYYCARDSGALYSWNYGDAFDIWGQGTMVTVSS
VL: DIQMTQSPSAMSASVGDRVTITCRASQDISNYLAWFQQKPGKVPKRLIYAASSLQSGVPSRFSGSGSGTEFTLTISSLQPEDFATYYCLQHNSYPRTFGQGTKVEIK
notes: as for B1

Kd: < 0.001 nM | Response: 0.05 | koff: < 1e-07 s⁻¹ | kon: 23000 M⁻¹ s⁻¹
B7: 75110_01K10A (antibody, V domains shown)
VH: EVQLVESGGALVQPGGSLRLSCAASGFTFRNYDMHWVRQATGKGLEWVSTIGTAGDTYYPGSVKGRFTISRENAKNSLYLQMNSLRAGDTAVYYCARGGDYYYGMDVWGQGTTVTVSS
VL: EIVLTQSPDTLSLSPGERATLSCRASQSLSSVYLAWYQQKPGQAPRLLIYGASSRATGIPDRFSGTGSGTDFTLTISRLEPEDFAVYYCQQYGSSPFTFGPGTKVDIK
notes: as for B1

Kd: < 0.001 nM | Response: 0.07 | koff: < 1e-07 s⁻¹ | kon: 24000 M⁻¹ s⁻¹
B9: 75110_04P06A (antibody, V domains shown)
VH: EVQLVESGGGLVQPGGSLRLSCAASGFTFSNYDMHWVRQATGKGLEWVSTIGTAGDTYYPGSVKGRFTISRENAKNSLYLQMNSLRAGDTAVYYCARGGDYYYGMDVWGQGTTVTVSS
VL: EIVLTQSPDTLSLSPGERATLSCRASQSLSSVYLAWYQQKPGQAPRLLIYGASSRATGIPDRFSGSGSGTDFTLTINRLEPEDFVVYYCQQYGSSPFTFGPGTKVDIK
notes: as for B1

Kd: 0.26 nM | Response: 0.14 | koff: 2e-05 s⁻¹ | kon: 77000 M⁻¹ s⁻¹
B10: 75110_01E08A (antibody, V domains shown)
VH: EVQLVESGGGLVQPGGSLRLSCAASGFTFNNYDMHWVRQATGKGLEWVSTIGTAGDTYYPASVKGRFTIYRENAKNSLYLQMNSLRAGDTAVYYCARGGDYYYGMDVWGQGTTVTVSS
VL: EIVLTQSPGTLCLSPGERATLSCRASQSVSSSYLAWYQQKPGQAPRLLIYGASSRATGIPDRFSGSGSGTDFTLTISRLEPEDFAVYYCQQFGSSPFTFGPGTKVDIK
notes: as for B1

Kd: 2.1 nM | Response: 0.08 | koff: 6.1e-05 s⁻¹ | kon: 28000 M⁻¹ s⁻¹
B12: 75110_01N04A (antibody, V domains shown)
VH: EVQLVESGGGLVQPGGSLRLSCAASGFTFSNYDMHWVRQATGKGLEWVSTIGTAGDTYYPGSVKGRFTISRENAKNSLYLQMNSLRAGDTAVYYCARGGDFYYGLDVWGQGTTVTVSS
VL: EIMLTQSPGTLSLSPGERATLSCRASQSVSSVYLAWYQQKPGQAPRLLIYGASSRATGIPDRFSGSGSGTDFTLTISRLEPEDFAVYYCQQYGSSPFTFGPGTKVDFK
notes: as for B1

Kd: 66 nM | Response: 0.05 | koff: 8.6e-05 s⁻¹ | kon: 1300 M⁻¹ s⁻¹
B13: 75110_02I18A (antibody, V domains shown)
VH: EVQVVESGGGLVQPGGSLRLSCAASGFTFSSYDMHWVRQATGKGLEWVSTIGTAGDTYYPGSVKGRFTISRENAKNSLYLQMNSLRAGDTAVYYCARGGYYYYGMDVWGQGTTVTVSS
VL: EIVLTQSPGTLSLSPGERATLSCRASQSVSSSYLAWYQQKPGQSPRLLIHGASSRATGIPDRVSGSGSGTDFTLTISRLEPEDFAVYYCQQYGSSPFTFGPGTKVDIK
notes: as for B1

Kd: 3 nM | Response: 0.23 | koff: 0.0004 s⁻¹ | kon: 140000 M⁻¹ s⁻¹
B15: 75110_03C01A (antibody, V domains shown)
VH: QVQLQQWGAGLLKPSETLSLTCAVYGGSFSGYYWSWIRQSPGKGLEWIGEINQSGSTNYNPSLKSRVTISVDTSKDQFSLKLSSVTAADTAVYYCARVINWFDSWGQGSLVTVSS
VL: DIQMTQSPSSVSASVGDRVTITCRASQGISSWLAWYQQKPGNAPKLLIYDASSFQSGVPSRFSGSGSGTDFTLTISSLQTEDFATYYCQQANSFPYTFGQGTKLEIK
notes: as for B1

Further lines, the binder ahead of its results:

B2: 75110_02E22A (antibody, V domains shown)
VH: QVQLQESGPGLVKPSETLSLTCTVSGGSISSFYWSWIRQPAGKGLEWIGRIYTSGSTNYNPSLKSRVTMSVDTSKNQFSLKLSSVTAADTAVYYCARELEKRNYYGMDVWGQGTTVTVSS
VL: DIQMTQSPSSLSASVGDRVTITCQASHDISNYLNWYQQKPGKAPKLLIFDASTLETGVPSRFSGSGSGTYFTFTIRSLQPEDIATYYCQQYDSLPLTFGGGTKVEIK
notes: as for B1
Kd: 50 nM | Response: 0.16 | koff: 0.0031 s⁻¹ | kon: 63000 M⁻¹ s⁻¹

B3: 75110_01L08A (antibody, V domains shown)
VH: QVQLQESGPGLVKPSETLSLTCTVSGGSISHYYWSWIRQPPGKGLEWIGYIHYSGTTNYNPSLKSRVTISVDTSKNQLSLKLRSVTAADTAVYYCARDQGFSSGGMDVWGQGTTVTVSS
VL: not shown
notes: as for B1
Kd: 4.1 nM | Response: 0.19 | koff: 0.0016 s⁻¹ | kon: 390000 M⁻¹ s⁻¹

B5: 75110_04F22A (antibody, V domains shown)
VH: EVQLVESGGGLVQPGGSLRLSCAASGFTFSSYDIHWVRQATGKGLEWVSTIGTAGDTYYPGSVKGRFTISRENAKNSLYLQMNSLRAGDTAVYYCARGGYYYYGMDVWGQGTTVTVSS
VL: EIVLTQSPGTLSLSPGERATLSCRASQSVYSSYLAWYQQKPGQAPRLLIYGASSRATGIPDRFSGSGSGTDFTLTISRLEPEDFAVYYCQQFGTSPFTFGPGTKVDIK
notes: as for B1
Kd: 5.9 nM | Response: 0.05 | koff: 0.00021 s⁻¹ | kon: 35000 M⁻¹ s⁻¹

B6: 75110_01J17A (antibody, V domains shown)
VH: EVQLVESGGGLVQPGGSLRLSCAASGFTFSSYDMHWVRQGTGKGLEWVSTIGTADDTYYPGSVKGRFTISRENAENSLYLQMNSLRAGDTAVYYCARGGDYYYGMDVWGQGTTVTVSS
VL: EIVLAQSPGTLSLSPGERATLSCRASQSVYISYLAWYQQKPGQAPRLLIYGASSRATGIPDRFSGSGSGTDFTLTITRLEPEDFAVYYCQQFGSSPFTFGPGTKVDFK
notes: as for B1
Kd: 2.8 nM | Response: 0.09 | koff: 0.00012 s⁻¹ | kon: 43000 M⁻¹ s⁻¹

B8: 75110_01G11A (antibody, V domains shown)
VH: EVQLVESGGGLVQPGGSLRLSCAASGFTFSSYDMHWVRQATGKGLEWVSTIGTAGDTYYPGSVKGRFTISRENARNSLFLQMNSLRAGDTAVYYCARGGDYYYGMDVWGQGTTVTVSS
VL: EIVLTQSPGTLSLFPGERATLSCRASQNTYSSYLAWYQQKPGQAPRLLIYGASNRATGIPDRFSGSGSGTDFTLTISRLEPEDFAVYYCQQHGTSPFTFGPGTKVDIK
notes: as for B1
Kd: 1.7 nM | Response: 0.11 | koff: 7.2e-05 s⁻¹ | kon: 42000 M⁻¹ s⁻¹

B11: 75110_05F19A (antibody, V domains shown)
VH: EVQLVESGGGLVQPGGSLRLSCAASGFTFSNYDVHWVRQPTGKGLEWVSTIGTAGDTYYPGSVKGRFTISRENAKNSLYLQMNSLRAGDTAVYYCARGGYDYYGLDVWGQGTTVTVSS
VL: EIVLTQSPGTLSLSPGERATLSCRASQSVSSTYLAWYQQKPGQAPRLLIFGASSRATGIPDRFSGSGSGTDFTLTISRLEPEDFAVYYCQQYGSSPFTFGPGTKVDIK
notes: as for B1
Kd: < 0.001 nM | Response: 0.05 | koff: < 1e-07 s⁻¹ | kon: 19000 M⁻¹ s⁻¹

B14: 75110_01H18A (antibody, V domains shown)
VH: QVQLQQWGAGLLKPSETLSLTCAVYGGSFSGYYWSWIRQSPGKGLEWIGEINQSGSTNYNPSLKSRVTISVDTSKNQFSLKLSSVTAADTAVYYCARVINWFDSWGQGTLVTVSS
VL: DIQMTQSPSSVSASVGDRVTITCRASQGISSWLAWYQQKPGKAPKLLIYAASSFQSGVPSRFSGSGSGTDFTLTISSLQTEDFATYYCQQANSFPYTFGQGTRLEIK
notes: as for B1
Kd: 16 nM | Response: 0.23 | koff: 0.0016 s⁻¹ | kon: 99000 M⁻¹ s⁻¹
